In article PMC3936747 (Nucleic Acids Research, 2013):
Read-outs that look alike come from different tables or passages of the source.

Columns and labels:
[1] = target: T1, SpoIIIE motor domain (SpoIIIE C-terminal) (Bacillus subtilis, UniProt P21458 177-787); assay: fluorescence anisotropy
T1 sequence: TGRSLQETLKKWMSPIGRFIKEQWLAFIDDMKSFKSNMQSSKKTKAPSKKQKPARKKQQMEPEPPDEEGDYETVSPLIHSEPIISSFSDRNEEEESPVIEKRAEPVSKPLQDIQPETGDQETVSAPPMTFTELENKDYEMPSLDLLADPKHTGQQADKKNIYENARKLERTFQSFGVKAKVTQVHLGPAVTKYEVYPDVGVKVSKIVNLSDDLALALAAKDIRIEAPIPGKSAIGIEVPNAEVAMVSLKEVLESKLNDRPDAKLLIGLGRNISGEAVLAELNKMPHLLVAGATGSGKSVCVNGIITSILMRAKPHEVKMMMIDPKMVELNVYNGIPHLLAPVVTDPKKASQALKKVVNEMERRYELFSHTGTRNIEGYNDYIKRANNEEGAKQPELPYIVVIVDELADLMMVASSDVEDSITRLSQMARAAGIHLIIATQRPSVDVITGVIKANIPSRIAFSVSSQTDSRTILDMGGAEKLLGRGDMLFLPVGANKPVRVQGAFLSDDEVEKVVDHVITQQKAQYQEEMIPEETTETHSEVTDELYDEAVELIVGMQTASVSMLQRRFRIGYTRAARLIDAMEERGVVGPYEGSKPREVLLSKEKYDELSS

[2] = target: T2, SpoIIIE467 (Walker A mutant) (Bacillus subtilis, UniProt P21458 177-787, G467S); assay: fluorescence anisotropy
T2 sequence: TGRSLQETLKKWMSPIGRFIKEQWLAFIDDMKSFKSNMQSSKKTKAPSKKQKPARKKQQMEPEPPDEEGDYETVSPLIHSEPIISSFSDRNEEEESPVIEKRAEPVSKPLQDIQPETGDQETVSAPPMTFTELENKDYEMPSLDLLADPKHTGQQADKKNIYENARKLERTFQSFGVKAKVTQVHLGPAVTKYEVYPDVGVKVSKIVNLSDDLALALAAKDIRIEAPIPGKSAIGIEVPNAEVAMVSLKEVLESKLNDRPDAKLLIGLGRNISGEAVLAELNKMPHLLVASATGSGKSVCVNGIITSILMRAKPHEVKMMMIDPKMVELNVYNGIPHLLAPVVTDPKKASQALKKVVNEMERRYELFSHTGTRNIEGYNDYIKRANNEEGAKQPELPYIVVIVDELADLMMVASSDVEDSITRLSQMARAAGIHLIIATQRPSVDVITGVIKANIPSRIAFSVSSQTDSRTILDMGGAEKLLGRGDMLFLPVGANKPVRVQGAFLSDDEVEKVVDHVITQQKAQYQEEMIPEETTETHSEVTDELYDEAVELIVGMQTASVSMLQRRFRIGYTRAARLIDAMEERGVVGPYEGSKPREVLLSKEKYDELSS

[3] = target: T1, SpoIIIE motor domain (SpoIIIE …); assay: fluorescence anisotropy; remark: listed apart in the source
[4] = target: T1, SpoIIIE motor domain (SpoIIIE …); assay: fluorescence anisotropy; remark: listed apart in the source
[5] = target: the molecule itself; assay: negative-stain electron microscopy

B1: DNANS (43 bp, no SRS) (dsDNA)
DNA 1: GCGGAGGCGGGAGGCGGAGATCTTACCGCTGTTGAGATCCAGC
DNA 2: GCTGGATCTCAACAGCGGTAAGATCTCCGCCTCCCGCCTCCGC
Work on B1 yielded a Kd [1] of 61 ± 11 nM, a Kd [2] of 63 ± 3 nM and a Kd [3] of 60 ± 9 nM. For the same binder, the Kd [4] was 43 ± 9 nM.

B2: SpoIIIE C-terminal motor domain (residues 177-787) with a C-terminal hexahistidine tag (domain or fragment, Bacillus subtilis, UniProt P21458 177-787, looked up)
chain: TGRSLQETLKKWMSPIGRFIKEQWLAFIDDMKSFKSNMQSSKKTKAPSKKQKPARKKQQMEPEPPDEEGDYETVSPLIHSEPIISSFSDRNEEEESPVIEKRAEPVSKPLQDIQPETGDQETVSAPPMTFTELENKDYEMPSLDLLADPKHTGQQADKKNIYENARKLERTFQSFGVKAKVTQVHLGPAVTKYEVYPDVGVKVSKIVNLSDDLALALAAKDIRIEAPIPGKSAIGIEVPNAEVAMVSLKEVLESKLNDRPDAKLLIGLGRNISGEAVLAELNKMPHLLVAGATGSGKSVCVNGIITSILMRAKPHEVKMMMIDPKMVELNVYNGIPHLLAPVVTDPKKASQALKKVVNEMERRYELFSHTGTRNIEGYNDYIKRANNEEGAKQPELPYIVVIVDELADLMMVASSDVEDSITRLSQMARAAGIHLIIATQRPSVDVITGVIKANIPSRIAFSVSSQTDSRTILDMGGAEKLLGRGDMLFLPVGANKPVRVQGAFLSDDEVEKVVDHVITQQKAQYQEEMIPEETTETHSEVTDELYDEAVELIVGMQTASVSMLQRRFRIGYTRAARLIDAMEERGVVGPYEGSKPREVLLSKEKYDELSS
B2 was tested, and the “stoichiometry N” value [5] was 6.
